Results taken from paper PMC8646926 (Advanced Biology, 2021).
Where two headings read alike, the source gives them in different places.

B1: 2INS27 (VHH)
VHH: QVQLQESGGGLVQAGGSLRLSCATSGSIFSSAVMGWYRQAPGNERELVALIGSSDTTDYSNSVKGRFTISRDNAKNTAYLRMNSLKPEDTAVYYCTAVKYGLGGFVYWGQGTQVTVSS
B2: nanobody 2NSP23 (VHH)
VHH: QVQLQESGGGLVQPGGSLRLSCAASGLAFSMYTMGWFRQAPGKEREFVAMIISSGDSTDYADSVKGRFTISRDNGKNTVYLQMDSLKPEDTAVYYCAAPKFRYYFSTSPGDFDSWGQGTQVTVSS
B3: nanobody 2NSP90 (VHH)
VHH: QVQLQESGGGLVQTGDSLRLSCAVSGRTFSTYSVGWFRQAPGKEREFVALRWSGGTTYYADSVVGRFTVSRDNAKNTVYLEMNSLKPEDTAVYYCAADRGSGSYSPTYRWDYWGQGTQVTVSS
B4: 3NSP78 (VHH)
VHH: QVQLQESGGGLVQAGGSLRLSCAASGRAFSSYVMGWFRQAPGKEREFVAAIHWTGAATVYVDSVKGRFAISRHNAKNTVYLEMNSLKPEDTAVYYCAADPSGSYWPPKRYDYWGQGTQVTVSS
B5: 2INS45 (VHH)
VHH: QVQLQESGGGLVQAGGSLRLSCAASGFTLSSNDMGWYRQAPGKQRELVATITSGLSTNYADSVKGRFTISRDNAKNTVFLQMNSLKIEDTAVYYCEVERGWGPPRDYWGHGTQVTVSS
B6: 2INS69 (VHH)
VHH: QVQLQESGGGLVRAGDSLRLSCAVSGRTFSSVAMGWFRQAPGKEREFVAFISGSTGSVTYYADSVKGRFAISRDNAKNTVYLQMNSLKPEDTAVYDCAAKFTGTFNYQGLYDYWGQGTQVTVSS
B7: 2INS64 (VHH)
VHH: QVQLQESGGGLVQVGGSLRLSCAASGSILSINAMGWYRQAPGKQRELVAAITSGGSTNYADSVKGRFTISRDNAKNMLYLQMNSLKPEDTAVYYCHVVTGWGPLDWGQGTQVTVSS
B8: 3NSP52 (VHH)
VHH: QVQLQESGGGLVQPEGSLRLSCAASGLTFDSYAIGWFRQAPGKEREFVAASIWSGDSGHYTGSVKGRFTISRDNAKNTVDLQMNSLKPEDTAVYYCAASASFLHSANYHMRAKWGYWGQGTQVTVSS

Columns and labels:
[1] = target: T1, SARS-CoV-2 Nsp9, wild type, purified recombinant (SARS-CoV-2, UniProt P0DTD1)
[2] = target: T1, SARS-CoV-2 Nsp9, wild type, purified …; test: far-Western, overlay or dot blot; settings: both partners purified
[3] = target: T1, SARS-CoV-2 Nsp9, wild type, purified …; test: NMR titration; settings: both partners purified

Binder | binding result [1] | further results
B1 | binds | –
B2 | – | binding result [2]: binds
B3 | – | stoichiometry N [3]: 3 to 4
B4 | binds | –
B5 | binds | –
B6 | binds | –
B7 | binds | –
B8 | binds | –
